Sequences and labels used below:
B1: PIP5K1C peptide 642-657 (Phosphatidylinositol 4-phosphate 5-kinase type-1 gamma), 16-mer library wild type / TLN1 PTB (TLN1 Phosphotyrosine-binding (PTB) domain, residues 309-401) (parent complex)
chain 1: TDERSWVYSPLHYSAQ
chain 2: GVSFFLVKEKMKGKNKLVPRLLGITKECVMRVDEKTKEVIQEWNLTNIKRWAASPKSFTLDFGDYQDGYYSVQTTEGEQIAQLIAGYIDIILK

The assay covers variants of B1. Description: proteomic peptide phage display deep mutational scan (ProP-PD DMS): M13 P8 16-mer library selected against immobilised GST-tagged bait for four days (rounds), NGS of the eluted pools per day and pseudo-replica; bait immobilised on MaxiSorp plates (10 µg), library pre-cleared on GST, 2 h binding at 4 °C, five washes; one round per day, days 1-4; value from days 2 and 3.
As to chain 1 Y8H, the screen value was 0.0119 average fractional NGS count over selection days 2 and 3 (reads of this peptide / all reads for the bait, averaged over ….

For the variant chain 1 Y8S, the screen value is 0.00106 average fractional NGS count over selection days 2 and 3 (reads of this peptide / all reads for the bait, averaged over …. For chain 1 Y8V, the screen value is 0.0101 average fractional NGS count over selection days 2 and 3 (reads of this peptide / all reads for the bait, averaged over …. chain 1 Y8W: the screen value is 0.004 average fractional NGS count over selection days 2 and 3 (reads of this peptide / all reads for the bait, averaged over …. As for chain 1 Y8A, the screen value was 0.00167 average fractional NGS count over selection days 2 and 3 (reads of this peptide / all reads for the bait, averaged over …. On to chain 1 Y8L, for which the screen value is 0.0129 average fractional NGS count over selection days 2 and 3 (reads of this peptide / all reads for the bait, averaged over …. As for chain 1 Y8E, the screen value is 0.002 average fractional NGS count over selection days 2 and 3 (reads of this peptide / all reads for the bait, averaged over …. Turning to chain 1 Y8I, the screen value was 0.00147 average fractional NGS count over selection days 2 and 3 (reads of this peptide / all reads for the bait, averaged over …. On to chain 1 Y8G, for which the screen value is 0.000458 average fractional NGS count over selection days 2 and 3 (reads of this peptide / all reads for the bait, averaged over …. With chain 1 Y8N, the screen value was 0.00782 average fractional NGS count over selection days 2 and 3 (reads of this peptide / all reads for the bait, averaged over …. In the case of chain 1 Y8T, the screen value was 0.0121 average fractional NGS count over selection days 2 and 3 (reads of this peptide / all reads for the bait, averaged over …. In the case of chain 1 S9N, the screen value was 0.0022 average fractional NGS count over selection days 2 and 3 (reads of this peptide / all reads for the bait, averaged over …. For chain 1 S9A, the screen value is 0.000707 average fractional NGS count over selection days 2 and 3 (reads of this peptide / all reads for the bait, averaged over …. For chain 1 A15M, the screen value is 0.00017 average fractional NGS count over selection days 2 and 3 (reads of this peptide / all reads for the bait, averaged over …. With chain 1 A15G, the screen value was 0.000489 average fractional NGS count over selection days 2 and 3 (reads of this peptide / all reads for the bait, averaged over ….

Consider chain 1 A15W, for which the screen value is 0.00297 average fractional NGS count over selection days 2 and 3 (reads of this peptide / all reads for the bait, averaged over …. For chain 1 A15D, the screen value is 0.00285 average fractional NGS count over selection days 2 and 3 (reads of this peptide / all reads for the bait, averaged over ….

For the variant chain 1 A15P, the screen value was 0.00282 average fractional NGS count over selection days 2 and 3 (reads of this peptide / all reads for the bait, averaged over ….

For the variant chain 1 A15L, the screen value is 0.00142 average fractional NGS count over selection days 2 and 3 (reads of this peptide / all reads for the bait, averaged over …. chain 1 A15I: the screen value is 0.000328 average fractional NGS count over selection days 2 and 3 (reads of this peptide / all reads for the bait, averaged over …. In the case of chain 1 S14T, the screen value is 0.012 average fractional NGS count over selection days 2 and 3 (reads of this peptide / all reads for the bait, averaged over …. As for chain 1 S14H, the figure is 0.00391 average fractional NGS count over selection days 2 and 3 (reads of this peptide / all reads for the bait, averaged over …. For the variant chain 1 S14W, the screen value was 0.00882 average fractional NGS count over selection days 2 and 3 (reads of this peptide / all reads for the bait, averaged over …. As for chain 1 S14Y, the screen value is 0.00168 average fractional NGS count over selection days 2 and 3 (reads of this peptide / all reads for the bait, averaged over …. As for chain 1 S14D, the figure is 0.00662 average fractional NGS count over selection days 2 and 3 (reads of this peptide / all reads for the bait, averaged over …; as for chain 1 S14Q, 0.00119 average fractional NGS count over selection days 2 and 3 (reads of this peptide / all reads for the bait, averaged over …; as for chain 1 S14V, 0.0171 average fractional NGS count over selection days 2 and 3 (reads of this peptide / all reads for the bait, averaged over …. Regarding chain 1 S14R, the screen value is 0.000219 average fractional NGS count over selection days 2 and 3 (reads of this peptide / all reads for the bait, averaged over ….

As to chain 1 S14F, the screen value is 0.00254 average fractional NGS count over selection days 2 and 3 (reads of this peptide / all reads for the bait, averaged over …. Take chain 1 S14G: the screen value is 0.000766 average fractional NGS count over selection days 2 and 3 (reads of this peptide / all reads for the bait, averaged over …. Consider chain 1 E3F, for which the screen value was 0.00327 average fractional NGS count over selection days 2 and 3 (reads of this peptide / all reads for the bait, averaged over ….

With chain 1 E3K, the screen value was 0.00138 average fractional NGS count over selection days 2 and 3 (reads of this peptide / all reads for the bait, averaged over …. Take chain 1 E3Y: the screen value was 0.00103 average fractional NGS count over selection days 2 and 3 (reads of this peptide / all reads for the bait, averaged over …. Turning to chain 1 E3A, the screen value is 0.000271 average fractional NGS count over selection days 2 and 3 (reads of this peptide / all reads for the bait, averaged over ….

Turning to chain 1 E3H, the screen value was 0.00041 average fractional NGS count over selection days 2 and 3 (reads of this peptide / all reads for the bait, averaged over …. Take chain 1 E3G: the screen value was 0.00191 average fractional NGS count over selection days 2 and 3 (reads of this peptide / all reads for the bait, averaged over ….

For the variant chain 1 E3I, the screen value was 0.00159 average fractional NGS count over selection days 2 and 3 (reads of this peptide / all reads for the bait, averaged over …. As for chain 1 E3N, the figure is 0.00147 average fractional NGS count over selection days 2 and 3 (reads of this peptide / all reads for the bait, averaged over …; as for chain 1 E3M, 0.0019 average fractional NGS count over selection days 2 and 3 (reads of this peptide / all reads for the bait, averaged over …; as for chain 1 E3P, 0.000178 average fractional NGS count over selection days 2 and 3 (reads of this peptide / all reads for the bait, averaged over …. On to chain 1 E3D, for which the screen value was 0.000475 average fractional NGS count over selection days 2 and 3 (reads of this peptide / all reads for the bait, averaged over …. chain 1 E3T: the screen value is 0.00106 average fractional NGS count over selection days 2 and 3 (reads of this peptide / all reads for the bait, averaged over …. For the variant chain 1 E3S, the screen value was 0.00226 average fractional NGS count over selection days 2 and 3 (reads of this peptide / all reads for the bait, averaged over ….

As for chain 1 P10V, the screen value was 0.000485 average fractional NGS count over selection days 2 and 3 (reads of this peptide / all reads for the bait, averaged over ….

On to chain 1 P10R, for which the screen value was 0.000767 average fractional NGS count over selection days 2 and 3 (reads of this peptide / all reads for the bait, averaged over ….

On to chain 1 P10Y, for which the screen value is 0.000349 average fractional NGS count over selection days 2 and 3 (reads of this peptide / all reads for the bait, averaged over …. chain 1 P10T: the screen value was 0.00133 average fractional NGS count over selection days 2 and 3 (reads of this peptide / all reads for the bait, averaged over …. On to chain 1 P10H, for which the screen value is 0.00282 average fractional NGS count over selection days 2 and 3 (reads of this peptide / all reads for the bait, averaged over …. As for chain 1 P10A, the screen value was 0.00236 average fractional NGS count over selection days 2 and 3 (reads of this peptide / all reads for the bait, averaged over ….

chain 1 P10Q: the screen value was 0.001 average fractional NGS count over selection days 2 and 3 (reads of this peptide / all reads for the bait, averaged over ….

Consider chain 1 P10L, for which the screen value is 0.00637 average fractional NGS count over selection days 2 and 3 (reads of this peptide / all reads for the bait, averaged over …. Regarding chain 1 P10F, the screen value is 0.0019 average fractional NGS count over selection days 2 and 3 (reads of this peptide / all reads for the bait, averaged over ….

chain 1 P10K: the screen value was 0.00642 average fractional NGS count over selection days 2 and 3 (reads of this peptide / all reads for the bait, averaged over ….

With chain 1 P10D, the screen value is 0.00117 average fractional NGS count over selection days 2 and 3 (reads of this peptide / all reads for the bait, averaged over …. With chain 1 P10E, the screen value was 0.000515 average fractional NGS count over selection days 2 and 3 (reads of this peptide / all reads for the bait, averaged over ….

Consider chain 1 R4N, for which the screen value is 0.00121 average fractional NGS count over selection days 2 and 3 (reads of this peptide / all reads for the bait, averaged over ….

With chain 1 R4G, the screen value is 0.00304 average fractional NGS count over selection days 2 and 3 (reads of this peptide / all reads for the bait, averaged over ….

On to chain 1 R4M, for which the screen value was 0.00101 average fractional NGS count over selection days 2 and 3 (reads of this peptide / all reads for the bait, averaged over ….

Take chain 1 R4A: the screen value was 0.00627 average fractional NGS count over selection days 2 and 3 (reads of this peptide / all reads for the bait, averaged over …. On to chain 1 R4Y, for which the screen value is 0.00355 average fractional NGS count over selection days 2 and 3 (reads of this peptide / all reads for the bait, averaged over …. For chain 1 R4Q, the screen value was 0.00324 average fractional NGS count over selection days 2 and 3 (reads of this peptide / all reads for the bait, averaged over …. Regarding chain 1 R4P, the screen value is 0.000771 average fractional NGS count over selection days 2 and 3 (reads of this peptide / all reads for the bait, averaged over …. Consider chain 1 R4W, for which the screen value is 0.000409 average fractional NGS count over selection days 2 and 3 (reads of this peptide / all reads for the bait, averaged over …. As for chain 1 R4F, the screen value was 0.00144 average fractional NGS count over selection days 2 and 3 (reads of this peptide / all reads for the bait, averaged over ….

On to chain 1 D2H, for which the screen value is 0.0024 average fractional NGS count over selection days 2 and 3 (reads of this peptide / all reads for the bait, averaged over ….

Turning to chain 1 D2F, the screen value was 0.00154 average fractional NGS count over selection days 2 and 3 (reads of this peptide / all reads for the bait, averaged over …. As for chain 1 D2M, the figure is 0.000501 average fractional NGS count over selection days 2 and 3 (reads of this peptide / all reads for the bait, averaged over …; as for chain 1 D2N, 0.000972 average fractional NGS count over selection days 2 and 3 (reads of this peptide / all reads for the bait, averaged over ….

Take chain 1 D2L: the screen value is 0.0016 average fractional NGS count over selection days 2 and 3 (reads of this peptide / all reads for the bait, averaged over ….

As for chain 1 D2E, the screen value was 0.00176 average fractional NGS count over selection days 2 and 3 (reads of this peptide / all reads for the bait, averaged over ….

As to chain 1 D2S, the screen value was 0.00166 average fractional NGS count over selection days 2 and 3 (reads of this peptide / all reads for the bait, averaged over …. Consider chain 1 D2I, for which the screen value was 0.000155 average fractional NGS count over selection days 2 and 3 (reads of this peptide / all reads for the bait, averaged over …. Take chain 1 D2V: the screen value was 0.00155 average fractional NGS count over selection days 2 and 3 (reads of this peptide / all reads for the bait, averaged over …. With chain 1 D2Y, the screen value is 0.000691 average fractional NGS count over selection days 2 and 3 (reads of this peptide / all reads for the bait, averaged over …. As for chain 1 D2W, the figure is 0.0007 average fractional NGS count over selection days 2 and 3 (reads of this peptide / all reads for the bait, averaged over ….

The values are drawn from article PMC12102759 (2025).
